Measured values taken from the Human Domainome abundance scans (Beltran et al. 2025).
± gives the uncertainty stated by the source.

Test: abundance fitness (aPCA) (normalised: wild type 0, dead -1); higher = more abundant; growth selection in yeast, the domain comes from the species named
Details: Homo sapiens

Substance | abundance fitness
Scaffold attachment factor B1 K54M, Q15424 | -0.443 ± 0.087
Scaffold attachment factor B1 K54N, Q15424 | -0.444 ± 0.075
Scaffold attachment factor B1 K54P, Q15424 | -0.25 ± 0.082
Scaffold attachment factor B1 K54Q, Q15424 | -0.115 ± 0.066
Scaffold attachment factor B1 K54R, Q15424 | -0.063 ± 0.047
Scaffold attachment factor B1 K54S, Q15424 | -0.259 ± 0.072
Scaffold attachment factor B1 K54T, Q15424 | -0.189 ± 0.057
Scaffold attachment factor B1 K54V, Q15424 | -0.221 ± 0.049
Scaffold attachment factor B1 K54W, Q15424 | -0.255 ± 0.056
Scaffold attachment factor B1 K54Y, Q15424 | -0.157 ± 0.059
Scaffold attachment factor B1 K62A, Q15424 | -0.073 ± 0.052
Scaffold attachment factor B1 K62C, Q15424 | -0.27 ± 0.057
Scaffold attachment factor B1 K62D, Q15424 | -0.403 ± 0.089
Scaffold attachment factor B1 K62E, Q15424 | -0.287 ± 0.053
Scaffold attachment factor B1 K62F, Q15424 | -0.366 ± 0.078
Scaffold attachment factor B1 K62G, Q15424 | -0.191 ± 0.048
Scaffold attachment factor B1 K62H, Q15424 | -0.211 ± 0.066
Scaffold attachment factor B1 K62I, Q15424 | -0.336 ± 0.078
Scaffold attachment factor B1 K62L, Q15424 | -0.204 ± 0.054
Scaffold attachment factor B1 K62M, Q15424 | -0.254 ± 0.078
Scaffold attachment factor B1 K62N, Q15424 | -0.231 ± 0.096
Scaffold attachment factor B1 K62P, Q15424 | -0.728 ± 0.065

Substance | abundance fitness
Scaffold attachment factor B1 K62R, Q15424 | -0.089 ± 0.048
Scaffold attachment factor B1 K62T, Q15424 | -0.212 ± 0.072
Scaffold attachment factor B1 K62V, Q15424 | -0.246 ± 0.052
Scaffold attachment factor B1 K62W, Q15424 | -0.366 ± 0.065
Scaffold attachment factor B1 K62Y, Q15424 | -0.285 ± 0.087
Scaffold attachment factor B1 K63A, Q15424 | -0.202 ± 0.053
Scaffold attachment factor B1 K63C, Q15424 | -0.234 ± 0.048
Scaffold attachment factor B1 K63D, Q15424 | -0.255 ± 0.094
Scaffold attachment factor B1 K63F, Q15424 | -0.432 ± 0.061
Scaffold attachment factor B1 K63H, Q15424 | -0.541 ± 0.1
Scaffold attachment factor B1 K63I, Q15424 | -0.394 ± 0.09
Scaffold attachment factor B1 K63L, Q15424 | -0.237 ± 0.044
Scaffold attachment factor B1 K63M, Q15424 | -0.43 ± 0.07
Scaffold attachment factor B1 K63P, Q15424 | -0.61 ± 0.054
Scaffold attachment factor B1 K63Q, Q15424 | -0.085 ± 0.079
Scaffold attachment factor B1 K63R, Q15424 | -0.144 ± 0.055
Scaffold attachment factor B1 K63T, Q15424 | -0.238 ± 0.081
Scaffold attachment factor B1 K63V, Q15424 | -0.185 ± 0.056
Scaffold attachment factor B1 K63W, Q15424 | -0.398 ± 0.057
Scaffold attachment factor B1 K63Y, Q15424 | -0.42 ± 0.067
Scaffold attachment factor B1 L31A, Q15424 | -0.333 ± 0.069
Scaffold attachment factor B1 L31C, Q15424 | -0.553 ± 0.069

Substance | abundance fitness
Scaffold attachment factor B1 L31D, Q15424 | -0.498 ± 0.075
Scaffold attachment factor B1 L31E, Q15424 | -0.496 ± 0.076
Scaffold attachment factor B1 L31F, Q15424 | -0.417 ± 0.098
Scaffold attachment factor B1 L31G, Q15424 | -0.536 ± 0.06
Scaffold attachment factor B1 L31H, Q15424 | -0.575 ± 0.072
Scaffold attachment factor B1 L31I, Q15424 | -0.17 ± 0.06
Scaffold attachment factor B1 L31K, Q15424 | -0.66 ± 0.093
Scaffold attachment factor B1 L31M, Q15424 | -0.338 ± 0.087
Scaffold attachment factor B1 L31P, Q15424 | -0.748 ± 0.071
Scaffold attachment factor B1 L31Q, Q15424 | -0.623 ± 0.08
Scaffold attachment factor B1 L31R, Q15424 | -0.509 ± 0.051
Scaffold attachment factor B1 L31S, Q15424 | -0.547 ± 0.068
Scaffold attachment factor B1 L31T, Q15424 | -0.53 ± 0.1
Scaffold attachment factor B1 L31V, Q15424 | -0.188 ± 0.06
Scaffold attachment factor B1 L31W, Q15424 | -0.628 ± 0.052
Scaffold attachment factor B1 L31Y, Q15424 | -0.471 ± 0.07
Scaffold attachment factor B1 L34A, Q15424 | -0.482 ± 0.064
Scaffold attachment factor B1 L34C, Q15424 | -0.321 ± 0.079
Scaffold attachment factor B1 L34D, Q15424 | -0.632 ± 0.081
Scaffold attachment factor B1 L34E, Q15424 | -0.719 ± 0.084
Scaffold attachment factor B1 L34F, Q15424 | -0.212 ± 0.06
Scaffold attachment factor B1 L34G, Q15424 | -0.576 ± 0.056

Substance | abundance fitness
Scaffold attachment factor B1 L34I, Q15424 | -0.433 ± 0.096
Scaffold attachment factor B1 L34M, Q15424 | -0.067 ± 0.083
Scaffold attachment factor B1 L34N, Q15424 | -0.496 ± 0.078
Scaffold attachment factor B1 L34P, Q15424 | -0.619 ± 0.074
Scaffold attachment factor B1 L34Q, Q15424 | -0.527 ± 0.087
Scaffold attachment factor B1 L34R, Q15424 | -0.554 ± 0.053
Scaffold attachment factor B1 L34S, Q15424 | -0.433 ± 0.065
Scaffold attachment factor B1 L34T, Q15424 | -0.452 ± 0.066
Scaffold attachment factor B1 L34V, Q15424 | -0.738 ± 0.058
Scaffold attachment factor B1 L34W, Q15424 | -0.375 ± 0.075
Scaffold attachment factor B1 L34Y, Q15424 | -0.316 ± 0.056
Scaffold attachment factor B1 L39A, Q15424 | -0.556 ± 0.062
Scaffold attachment factor B1 L39C, Q15424 | -0.745 ± 0.074
Scaffold attachment factor B1 L39D, Q15424 | -1.12 ± 0.13
Scaffold attachment factor B1 L39E, Q15424 | -0.753 ± 0.06
Scaffold attachment factor B1 L39F, Q15424 | -0.665 ± 0.089
Scaffold attachment factor B1 L39G, Q15424 | -0.814 ± 0.052
Scaffold attachment factor B1 L39H, Q15424 | -0.766 ± 0.12
Scaffold attachment factor B1 L39I, Q15424 | -0.264 ± 0.1
Scaffold attachment factor B1 L39K, Q15424 | -0.996 ± 0.072
Scaffold attachment factor B1 L39M, Q15424 | -0.304 ± 0.076
Scaffold attachment factor B1 L39N, Q15424 | -0.87 ± 0.066

Substance | abundance fitness
Scaffold attachment factor B1 L39P, Q15424 | -0.77 ± 0.1
Scaffold attachment factor B1 L39Q, Q15424 | -0.764 ± 0.072
Scaffold attachment factor B1 L39R, Q15424 | -0.894 ± 0.05
Scaffold attachment factor B1 L39S, Q15424 | -0.877 ± 0.056
Scaffold attachment factor B1 L39T, Q15424 | -0.983 ± 0.091
Scaffold attachment factor B1 L39Y, Q15424 | -0.824 ± 0.093
Scaffold attachment factor B1 L43A, Q15424 | -0.225 ± 0.066
Scaffold attachment factor B1 L43C, Q15424 | -0.123 ± 0.068
Scaffold attachment factor B1 L43D, Q15424 | -0.858 ± 0.1
Scaffold attachment factor B1 L43E, Q15424 | -0.761 ± 0.08
Scaffold attachment factor B1 L43F, Q15424 | -1.21 ± 0.073
Scaffold attachment factor B1 L43G, Q15424 | -0.752 ± 0.05
Scaffold attachment factor B1 L43I, Q15424 | -1.02 ± 0.091
Scaffold attachment factor B1 L43K, Q15424 | -0.9 ± 0.095
Scaffold attachment factor B1 L43M, Q15424 | -0.402 ± 0.075
Scaffold attachment factor B1 L43N, Q15424 | -0.936 ± 0.13
Scaffold attachment factor B1 L43P, Q15424 | -1.1 ± 0.11
Scaffold attachment factor B1 L43Q, Q15424 | -0.911 ± 0.063
Scaffold attachment factor B1 L43S, Q15424 | -0.653 ± 0.059
Scaffold attachment factor B1 L43V, Q15424 | -0.714 ± 0.06
Scaffold attachment factor B1 L43W, Q15424 | -1.09 ± 0.083
Scaffold attachment factor B1 L43Y, Q15424 | -1.22 ± 0.07
